Data reported in the supplement of paper PMC9170038.

system: K4 kissing-loop RNA reporter; assay: apparent KD of K4 kissing-loop reporter; higher = weaker reporter binding; conditions: Eterna round: R107; input ligand: none
Method: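 RNA-MaP round R107: designed RNA switches with theophylline, tryptophan, arginine or FMN aptamers are transcribed on-chip within common flanks. They are titrated with a labelled K4 kissing-loop RNA reporter in RNA-MaP buffer (100 mM Tris pH 7.5, 80 mM KCl, 4 mM MgCl2), without ligand or with the indicated ligand. Median apparent KD per design.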
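Note: bound reporter read as fluorescence of individual clusters on recovered sequencing chips by microscopy, with normalized cluster intensities fitted with a binding model.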

Sequence | apparent KD of K4 kissing-loop reporter
UUGAGCCGGACCGAAGUCCGGCUCUGCGAGCGAGGACCGGUACGGCCGCCACUCGGUGCAGUGAUGUUGCAUGGCCGCAAGGCCG [#2 Exclusion - Tryptophan A Attempt #8 (HarryS)] | 418 nM
AAAGAGUCACUCGAAGCUAUCGAAGAUAGGCGAGGACCGGUACGGCCGCCACUCGGAGUGAUGUUCCGAAGACUGUAAAAUAAAA [MatMod 12 - Jieux - Exclusion - Tryptophan A] | 206 nM
UGGAGUUGACGAAAAGUCAACUCCUGAGAUACCAGUGACGAAAGUCACCCUUGGCAGCUCACUGGCAGUGAUGUUGCACGAUAAA [KL-SSTheo-A1] | 80 nM
UCACGAGUGAUGUUCGUCGCAAUCACCGAAGGAGCGGGCGAAAGCCCAGGUAGGUCGCGGUAGAAUAAUGAUUUUAUUCGAUUGC [Same State Arginine A GF 26] | 756 nM
UCUGGUAUAUCUGAUACCAGAGUAUAGUAUCAAUUGCAUAUGGAGUGAUGUUCCAUACAACUCCCUUGGCAGCAGAUCUAUCUCU [Same State Theophylline B GF 24] | 246 nM
GUGCGCGGUGCGGCCGCCACUCGGAUGCGAGUGAUGUUCGCGGGACGGACGCAAGUCCGUCAUUCGAGGACCGGGCAUGGCUGCA [#2 Same State - Tryptophan B Attempt #6 (HarryS)] | 242 nM
GUGCGCGCGGCGGCCGCCACUCGCAUGAGAGUGAUGUUCUCACCGUGACCGUAAGGUCGCGGUGUGAGGACCGGGCCGGGCUGCG [#2 Same State - Tryptophan B Attempt #24 (HarryS)] | 207 nM
AAACCCAGUGAUGUUGGGAAUCAGUUGAGGGAGGAUAUUGGUAAUACAAGAAGGCCCGGCUGCGGGUGAUGUUCGCAUUAGGGCC [Exclusion FMN A GF17] | 152 nM
UGAUUGCCAGUGAUGUUGGCAGUUUCUGAAGGAGCGCGUGAAAACGCAGGUAGGUCGCAGAUUAGUGCCAAUUGAUCGAAAGAUC [KL-XArg-A4] | 214 nM
UUCCACCGAGAAGGAUAUUAUGCUGGACUUGUUUAAGUGUUAAAUAGUGAUGUUAUUUGAUCGGAAUAAGAAGGUCUCAAGUUGA [theeternabot_sameState_KL_FMN_B_44] | 145 nM
UUGUUUGGUUGAGAGGUUGGGCGAGAUGAUACCAGUAGAGAAGAGUACCCUUGGCAGCAUAGGAAAGAUAUAGUGAUGUUGUAUA [SSTheophA.Q] | 357 nM
AAAUGCUUGUAUUUGAACAAUUCCUUUAGGGAGGAUAUUGGUAAUACAAGAAGGCCCUGAUGGGAGUGAUGUUCCCAUAACGCGG [Exclusion FMN A GF16] | 90.8 nM
AAUAAAAGAUGUUUAGGAAAGCAAAUGGAAGGAGCGUGCGAAAGCACAGGUAGGUCGCCAGUGAUGUUGGCACCUGAGCAUCAAA [#SwitchBubble 18 #K4Late] | 303 nM
AAUUGGGACGAAGGAUAUUGUCGGCCAUGUACGAGGUCCGGAUGUCAUGACUGUUAGUGAUGUUAACAAGAAGGUCGAGGGAGAC [theeternabot_exclusion_KL_FMN_B_25] | 103 nM
CUGAGCCUGACGUAAGUCAGGCUCUGCGAGCGAGGACCGGUACGGCCGCCACUCGGUGCAGUGAUGUUGCAUGGCCGCAAGGCCG [#2 Exclusion - Tryptophan A Attempt #19 (HarryS)] | 234 nM
AUCAUUGAGUGAUGUUCAAUGGGUUUUCCCAAGGAUAUUCGGAGCUGAAGAAGGUGGCCCUCGAUAUCAGUAUCAACCUGAAAGC [theeternabot_exclusion_KL_FMN_A_11] | 381 nM

same assay, conditions: Eterna round: R107; input ligand: theophylline 20 uM

Sequence | apparent KD of K4 kissing-loop reporter
GUGCGGCUAGUGAUGUUGGUUGUGUGGGAAGGAGCGCAGAUUCAUGCAGGUAGGUCGCCCACACCUCUGAAAGGAGGCUAAUUCA [KL-SSArg-A16] | 368 nM
GAUUCUGUUCGAAAGAACGGAAUCACGGAAGGAGCGAGAGAAAUCUCAGGUAGGUCGCCGAAUUUUAGAUAGUGAUGUUAUCAUU [Arginine A K4 1] | 856 nM
AGAACUGUCUGAGAUACCAGCUAAGGAGUGAUGUUCCUAAGUCCACGAAAGUGGACUCAUAGCCCUUGGCAGCUCAGACAGUUCA [#24 K4 Theophylline B Same State] | 565 nM
UGUGUUUACCUGACUCAGUGAUGUUGAGAAGGAGCGUGCUAAAGCACAGGUAGGUCGCUCAACCUAAAUUCAGGUGAGCACUAAA | 326 nM
AGAGUACGAAAGUACUCCUCUACACACUGACGAGGACCGGUACGGCCGCCACUCGAGUUGAGUGAUGUUCGACAGUGUGUAGAGA [Omei KL Tryp A SS C v1] | 163 nM
GGGAAGAAGGCGGCCGCCACUGCAGAAGAGACAGAGAGGGAAGAAGAGGAGUGAUGUUCCAAGAACAGGACCGGGCCAAGAAGGG [whbob_SS_Tryp_B_t29] | 284 nM
CCAUCGCUAUUCGAUACCAGUCUACGUAGGAAACUACGUCUGCAAAGGAGUGAUGUUCCAGACCCUUGGCAGCGAAUAGUGAUGG [Theophylline B K4 5] | 589 nM
AAUGCGCAGGGAAGGAGCGCCGUCCAGUGAUGUUGGAGUUAAAUACCAGUGAUGUUGGUUAGGCAGGUAGGUCGCCCUAAAGCGC [Exclusion Arginine B GF 1] | 98 nM
GGAGUUACCUGGGAUACCAGUCGGAGGCCCAGAGCUCGGAGUGAUGUUCUGGGAUGUUUCGGCCCUUGGCAGCUCUGGGUCUCCG [#2 Exclusion - Theophylline B Attempt #4 (HarryS)] | 648 nM
UGAUACCAGACGGCCGCCACUGGGACCGGGAGUGAUGUUCCAAAUAAAAGAAGCUCGGCCGCCACUAGGACCGGGUCUGGUAUCU [TrypBX 21 #DoubleAptamer #SwitchBubble] | 367 nM
UGAUAGGACAGAAGGAGCGGAAGUGAUGUUUCCAAAUGGAUAAGGUGUCAAAAGACACCCUUCCAGGUAGGUCGCUGUCCUAUCU [ArgBX 14 #Palindromic #SwitchBubble #StaticStem] | 102 nM
GCAGUGAUGUUGCGAAUCGGCCAUGAUGCAGAGGAUAUCGUGCCUUCGAGAAGGUUGUAUAGAGGAUACGAUACUAUUAAUGACG [Same State FMN A GF 6] | 413 nM
AGAGUGAUGUUUUUUUGAAGUGAGUAAAGUCGAGGACCGGUACGGCCGCCACUCGAGUGAUGUUAGUGAUGUUGAUGUAGUGAUG [xxzmullin] | 105 nM
AAACUUGCAGUGAUGUUGCAAGUAGGUGAUACCAGCAUCGAAAGAUGCCCUUGGCAGCACCAACACUGCAAGUAAGUAUCACCAA [(H1)-(H2)-(T1)-(T2)-(H)'-(T)'_Design1] | 161 nM
UACUAUAGUGAUGUUAUAGAUAAACCAGAUACCAGUGUGACAUAACACCCUUGGCAGCUGAUAAGGGAACAUAUGAAAACAUAUG [AstroSSTHeAED5.17] | 120 nM
UUGAGCCGGACCGAAGUCCGGCUCUGCGAGCGAGGACCGGUACGGCCGCCACUCGGUGCAGUGAUGUUGCAUGGCCGCAAGGCCG [#2 Exclusion - Tryptophan A Attempt #8 (HarryS)] | 339 nM
AAAGAGUCACUCGAAGCUAUCGAAGAUAGGCGAGGACCGGUACGGCCGCCACUCGGAGUGAUGUUCCGAAGACUGUAAAAUAAAA [MatMod 12 - Jieux - Exclusion - Tryptophan A] | 170 nM
UGGAGUUGACGAAAAGUCAACUCCUGAGAUACCAGUGACGAAAGUCACCCUUGGCAGCUCACUGGCAGUGAUGUUGCACGAUAAA [KL-SSTheo-A1] | 181 nM
UCACGAGUGAUGUUCGUCGCAAUCACCGAAGGAGCGGGCGAAAGCCCAGGUAGGUCGCGGUAGAAUAAUGAUUUUAUUCGAUUGC [Same State Arginine A GF 26] | 613 nM
UCUGGUAUAUCUGAUACCAGAGUAUAGUAUCAAUUGCAUAUGGAGUGAUGUUCCAUACAACUCCCUUGGCAGCAGAUCUAUCUCU [Same State Theophylline B GF 24] | 286 nM
GUGCGCGGUGCGGCCGCCACUCGGAUGCGAGUGAUGUUCGCGGGACGGACGCAAGUCCGUCAUUCGAGGACCGGGCAUGGCUGCA [#2 Same State - Tryptophan B Attempt #6 (HarryS)] | 183 nM
GUGCGCGCGGCGGCCGCCACUCGCAUGAGAGUGAUGUUCUCACCGUGACCGUAAGGUCGCGGUGUGAGGACCGGGCCGGGCUGCG [#2 Same State - Tryptophan B Attempt #24 (HarryS)] | 59.5 nM
AAACCCAGUGAUGUUGGGAAUCAGUUGAGGGAGGAUAUUGGUAAUACAAGAAGGCCCGGCUGCGGGUGAUGUUCGCAUUAGGGCC [Exclusion FMN A GF17] | 154 nM
